Data: patent US20110064743A1
Where a chain is given by its changes, count along the chain named. Blank lines part the entries; values can stand above or below the binder they belong to.

Columns and labels:
[1] = biological target: SK-BR-3 cells (antigen not identified); assay: saturation binding to cells by FACS, double-reciprocal plot; 'Rel. Affinity (nM)'; antigen on the cells not identified
[2] = biological target: OVCAR-3 cells (antigen not identified); assay: as above
[3] = biological target: OVCAR-3 cells (antigen not identified); assay: immunohistochemistry on OVCAR3 cells

- Kd [1]: 1.1 nM
B1: 1250_I13 (antibody, V domains shown)
VH: QVQLQQWGAGLLKPSETLSLTCAVYGGSFSGYFWTWVRQLPGRGLEWIGEINHRGTSSYNPSLRSRLTISVDTSKNQFSLKLSSVTAADTAVYYCARITEAVGFTSFDYWGQGILVTVSS
VL: QSVLTQPPSMSAAPGQKVTISCSGSTSNIGSNYVSWYQQLPQRAPKLLIYDNDKRPSGIPDRFSGSKSGASATLDITGLQTGDEAYYYCGTWDSSLSRVFGGGTKLTVL

- Kd [1]: 1.2 nM
B2: 1256_B2 (antibody, V domains shown)
VH: QVQLQQWGAGLLKPSETLSLTCAVYGGSFSGYFWSWIRQPPGRGLEWIGEINHRGSSTYKSSLKTRLTMSVDTSKNQFSIKLTSVTAADTAVYYCARITEAVGVTSFDSWGQGVLVTVSS
VL: B1 VL with M10V, S31N, K46R, D75G, S94N, S95N

- Kd [2]: 2 nM
B3: 1242_P11 (antibody, V domains shown)
VH: QVQLTQWGAGLLKPSETLSLTCAVGGGSFSGYFWTWIRQSPGRGLEWIGEINHKGKTTYNPTLKSRLSILVDTFKNQFSLKLRSVVAADTAVYYCARIVEAVGVTSFDSWGQGILVTVSS
VL: B1 VL with M10V, S31N, Y33H, R43T, D53N, D75G, S94T, S95R

- Kd [2]: 1.6 nM
B4: 1226_K16 (antibody, V domains shown)
VH: B1 VH with F29L, V37I, L40P, G55R, S57T, S58T, Y59S, V71L, F104V
VL: B1 VL with M10V, T19N, S31N, Y33F, S35A, D75G, T81S, S95T

- Kd [1]: 1.1 nM
B5: 1253_N12 (antibody, V domains shown)
VH: QVQLQQWGAGLVKPSETLSVTCAVYGGSFSGYFWTWIRQPPGRGLEWIGEINHRGSSSYNPSLRSRLSISVDTSKNQFSLKMRSVTAADTAVYYCARITEAVGVTSFDSWGQGVLVTVSS
VL: B1 VL with M10V, S31N, N52D, D75A

- # Samples Staining Positive [3]: > 75%
- Kd [2]: 0.8 nM
B6: 1038_D5 (TCN-445) (antibody, V domains shown)
VH: QVQLVQSGAEVQKPGASMKVSCKASGYTFTDFYFHWVRQAPGQGLEWMGWINPRSGATNYAHKFRGRVTMTSDTSIKTIYMSLGWLRSGDTAVYYCARDMRRENGYNFDGTFDYWGQGTLVTVSS
VL: DIQMTQSPPSLSASVGDRVTITCQASQDIKNYLNWYQQKPGKAPKLLIYDASNLETGVPSRFSGSRSGTNFTFTINSLQPEDIATYFCQRYDAFPLTFGGGSKVEIK
